Columns and labels:
MS2 coat protein = assay: apparent KD of MS2 coat protein; higher = weaker reporter binding; details: Eterna round: R107
Method: (§1)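 RNA-MaP round R107: designed RNA switches with theophylline, tryptophan, arginine or FMN aptamers are transcribed on-chip within common flanks. They are titrated with SNAP-549-labelled MS2 coat protein in RNA-MaP buffer (100 mM Tris pH 7.5, 80 mM KCl, 4 mM MgCl2), without ligand or with the indicated ligand. Median apparent KD per design.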

[1] = test system: K4 kissing-loop RNA reporter; assay: apparent KD of K4 kissing-loop reporter; higher = weaker reporter binding; details: Eterna round: R107;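 note: bound reporter read as fluorescence of individual clusters on recovered sequencing chips by microscopy, with normalized cluster intensities fitted with a binding model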
Method: as §1, with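 “a labelled K4 kissing-loop RNA reporter” for “SNAP-549-labelled MS2 coat protein”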

[2] = input ligand: theophylline 20 uM
[3] = input ligand: tryptophan 2.4 mM
[4] = input ligand: theophylline 2 mM

| Sequence | apparent KD of MS2 coat protein (MS2 coat protein; input ligand: arginine 13.2 mM) | apparent KD of MS2 coat protein (MS2 coat protein; [2]) | apparent KD of MS2 coat protein (MS2 coat protein; [3]) | apparent KD of MS2 coat protein (MS2 coat protein; [4]) | apparent KD of MS2 coat protein (MS2 coat protein; input ligand: none) | apparent KD of K4 kissing-loop reporter ([1]; input ligand: FMN 200 uM) | apparent KD of K4 kissing-loop reporter ([1]; input ligand: arginine 13.2 mM) | apparent KD of K4 kissing-loop reporter ([1]; input ligand: none) | apparent KD of K4 kissing-loop reporter [1, 2] | apparent KD of K4 kissing-loop reporter [1, 3] |
| --- | --- | --- | --- | --- | --- | --- | --- | --- | --- | --- |
| CAGGUGCAGUCAGAUACCAGAUCUGCACAUGAGGAUCACCCAUGUGUAAUGAGUUCAAAGAUCCCUUGGCAGCUGUGUGAUCCGA [Onbidibe] | 81.1 nM | 210 nM | 96.3 nM |  |  |  |  |  |  |  |
| CUAUAAGUACCGGUCCUCAGAUCCUCAUGACGAGGACCGGUACGGCCGCCACUCGAAACAUGAGGAUCACCCAUGUAAUAAUAUC [Brourdmod13] | 18.6 nM | 43.4 nM |  | 44.1 nM |  |  |  |  |  |  |
| CAGUCAGUCAGUCAAUGAGUGAGCCAUGAAGGAGCGUGGGAAACCACAGGUAGGUCGCAUGGGAAACAUGAGGAUCACCCAUGUU [SSArg A #2] | 27.5 nM | 36.9 nM | 28.2 nM | 36.2 nM | 25.5 nM |  |  |  |  |  |
| AGAAUAUAGUCGGCCGCCACUCUACAUACAUGAGGAUCACCCAUGUUUACAUAGUGAAUAUACAUGAGGACCGGGACAUAGGCAU [JR_SSTryptoB_Sub020] | 21.6 nM | 26.1 nM |  | 23.7 nM |  |  |  |  |  |  |
| UCACAUGAGGAUCACCCAUGUGUCAGAGAAGGAGCGGCCGCAAGGCCAGGUAGGUCGCUCAGGUAGCGUGAGGAUCACCCGUGUG [#1 Exclusion - Arginine A Attempt #10 (Inspired by cyborg)] | 23.6 nM | 213 nM | 117 nM | 141 nM | 118 nM |  |  |  |  |  |
| GCACCAGGUACGGAUACCAGACGCUGCCGAUUGGGUGGACAUGAGGAUCACCCAUGUAAUGUCCCUUGGCAGCCGUACCUGGUGC [#17 Exclusion-TheophyllineB] | 13.5 nM | 38.8 nM | 17.8 nM | 200 nM | 13.8 nM |  |  |  |  |  |
| UAAAACAUGAGGAUCACCCAUGUAAAUGAUACCAGAGUGAUGAUCCUCCCUUGGCAGCAUAACGCUGAUUGGAAACAAUCAGCGA [Mat - Same State Theophlline A - Mod of Eli - D23] | 28.8 nM | 144 nM | 75.8 nM |  |  |  |  |  |  |  |
| AUUCUUUACUGAAGGAGCGUCAUUCUUACAUGAGGAUCACCCAUGUUUAUUCUUUAUUAUUGACAGGUAGGUCGCAGAUUUUUUA [JR_SSArginiB_Sub018] | 15.5 nM | 17.7 nM | 14.3 nM | 14.3 nM | 13.8 nM |  |  |  |  |  |
| CGGAGUAUGACGGCCGCCACUUGCCGGGCGCAGCUGGCUGCUUGACAUGAGGAUCACCCAUGUCCAAGGACCGGGUCAUUCCUCG [theeternabot_sameState_MS2_Trp_B_37] | 59.4 nM | 145 nM |  | 189 nM |  |  |  |  |  |  |
| GCACAAGAUGGAAGGAGCGCUGGUAGGUGACACAUGAGGAUCACCCAUGUGCUCCUUGCCGAGCAGGUAGGUCGCCAUCUUGUGC [SSAB NP+V+V2 #7] | 21.1 nM | 40.3 nM | 25.5 nM | 36.1 nM | 27.7 nM |  |  |  |  |  |
| UGUUUUGUGAUGGAUACCAGCAGAGAAAACGUUUAUCCUAACAUGAGGAUCACCCAUGUAUGCCCUUGGCAGCUGUUGUGGGAUA [8.R] | 27.2 nM | 43.9 nM | 27.9 nM |  |  |  |  |  |  |  |
| UUUCAAGUAUCGGCCGCCACUCUAGUUGGUUGUUCAAUCCGAUUACAUGAGGAUCACCCAUGUCUGAGGACCGGGAUAAAGUAAU [theeternabot_sameState_MS2_Trp_B_25] | 20.4 nM | 32.5 nM |  | 31.2 nM |  |  |  |  |  |  |
| GCACCAGGUACGGAUACCAGCUGCCACAGUUACAUGAGGAUCACCCAUGUGAUAAAGUGUAGCCCUUGGCAGCUGUACCUGGUGC [SSThB NP+V+V2 #6 +-Same Structure] | 93.2 nM | 69.1 nM | 125 nM |  |  |  |  |  |  |  |
| AAACAUUGCUCAGAUACCAGACAUGAGGAUCACCCAUGUACCAAGGUACCCGAAAGGAAUGUCCCUUGGCAGCUGAGCAAUGAAA [MAT - Exclusion Theophlline B - Mod of Eli - D20] | 10.9 nM | 11.9 nM | 9.51 nM |  |  |  |  |  |  |  |
| CUACGUCGAGCGGCCGCCACUAUGGGUUGCCAAGUAGUGAUGUUACUGAGCUUUUAAUGAUCCUUUAGGACCGGGCUUUGGGAGG [theeternabot_sameState_KL_Trp_B_46] |  |  |  |  |  | 281 nM | 203 nM | 227 nM | 269 nM | 174 nM |

— the supplement of paper PMC9170038
